Data reported in paper PMC3246890 (The Journal of Cell Biology, 2011).

Biological target: the molecule itself
Test: bead aggregation assay

B1: NcadEC-Fc (secreted ectodomain of zebrafish N-cadherin fused to the Fc region of human IgG) (Fc fusion, UniProt Q90275 147-711, looked up)
chain: DWVIPPVNVLENSRKQFPEELVKIQSDKDKSNTLRYSVTGPGADQNPTGLFIIDPISGLLSVTKPLDREHIPNFHLRAHAVDINGNQMENPIDIIINVIDMNDNRPEFTHQIWNGTVDEGAKPGTFVMTVTSQDKDDPNTANGMLRYKILSQTPESPSSNMFTINNKTGKIITVAAGLDREKVPQYTLIIQATDMEGNPTYGLSNTATAVIRLLDVNDNAPEFTRETFHGEVPENRVNVIVTNLTVTDKDEPGTPAWNAVYRIISGDPTGRFSIPTDPVTNEGLVTVVKPVDFEMNRSFMLTVVADNEVPLASGIHRTRQSTATVSIRVIDVNESPNFDPNPKQIKLEEGLPQWSMLTTFTAHDPDRYMQQTISYSKLYDPANWLEIDPNNGRISTIAVLDRESPYVKNNLYNATFMASDNGVPRASGTGTLQIYLLDINDNAPRVFPQEAEVCERPEPNAINITAVDGDLNPNAGPYAFELPNRPSDIRRNWTLTRISGDHAQLSLKISYLESGIYELPISITDSGNLPMSNTTYLRIKVCQCDHHGDCVDMERIMAAGLGTGA
Question: Does B1 bind?
Answer: Result: binds
